Biological target: T1, RIG-IΔN (2CARD deletion);RIPLET (Homo sapiens;Homo sapiens, UniProt O95786;Q8IUD6 201-925;1-432, |)
T1 sequence 1: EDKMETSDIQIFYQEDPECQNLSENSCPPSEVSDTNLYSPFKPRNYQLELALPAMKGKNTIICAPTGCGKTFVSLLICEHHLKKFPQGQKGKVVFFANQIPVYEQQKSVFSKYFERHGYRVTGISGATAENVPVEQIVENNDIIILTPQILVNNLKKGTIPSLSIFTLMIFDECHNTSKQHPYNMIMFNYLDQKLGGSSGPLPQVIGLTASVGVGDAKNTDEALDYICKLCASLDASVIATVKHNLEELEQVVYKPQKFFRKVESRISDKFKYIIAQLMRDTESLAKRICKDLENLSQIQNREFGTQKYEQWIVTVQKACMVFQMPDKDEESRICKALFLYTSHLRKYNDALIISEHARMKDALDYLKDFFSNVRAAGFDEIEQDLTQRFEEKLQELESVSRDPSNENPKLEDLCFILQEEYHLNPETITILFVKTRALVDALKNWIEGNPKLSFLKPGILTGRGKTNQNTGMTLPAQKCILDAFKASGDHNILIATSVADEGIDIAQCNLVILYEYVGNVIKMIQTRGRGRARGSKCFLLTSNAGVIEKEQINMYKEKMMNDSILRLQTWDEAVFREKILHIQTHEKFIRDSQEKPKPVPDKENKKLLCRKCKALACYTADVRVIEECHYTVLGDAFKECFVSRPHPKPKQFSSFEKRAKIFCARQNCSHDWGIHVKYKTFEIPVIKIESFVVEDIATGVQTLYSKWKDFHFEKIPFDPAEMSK
T1 sequence 2: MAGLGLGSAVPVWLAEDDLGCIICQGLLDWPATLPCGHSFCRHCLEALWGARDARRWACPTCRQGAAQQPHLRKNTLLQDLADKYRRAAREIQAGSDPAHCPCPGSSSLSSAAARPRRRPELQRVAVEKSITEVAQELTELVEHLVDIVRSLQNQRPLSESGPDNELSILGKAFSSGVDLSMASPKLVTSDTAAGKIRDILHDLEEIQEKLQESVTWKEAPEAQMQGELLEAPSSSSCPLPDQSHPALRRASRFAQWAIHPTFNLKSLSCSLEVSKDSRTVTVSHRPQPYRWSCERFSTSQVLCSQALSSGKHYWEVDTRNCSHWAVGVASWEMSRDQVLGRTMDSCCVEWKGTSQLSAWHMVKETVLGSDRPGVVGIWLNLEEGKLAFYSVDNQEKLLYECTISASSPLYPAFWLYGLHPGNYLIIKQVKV
Assay: EMSA

B1: 21 bp dsRNA (dsRNA)
RNA 1: GAGUCACGACGUUGUAAAAAA
RNA 2: UUUUUUACAACGUCGUGACUC
modifications: 5'ppp
- binding result: binds

— doi:10.1101/367656
